Data as given in patent publication US20150133630A1 (UNIVERSITY OF TOKYO, published 2015).
Bridge positions count the residues as written; N and C are the ends. Square brackets hold non-standard residues; d marks the D form. Tyr(3-NO2) = N[C@@H](Cc1ccc(O)c([N+](=O)[O-])c1)C(=O)O; Arg(NO2) = N=C(NCCC[C@H](N)C(=O)O)N[N+](=O)[O-]

Key:
[1] = target: T1, human soluble FcRn (human, UniProt P55899 24-297; P61769 21-119, limits assumed, chemically biotinated with NHS-biotin in the mRNA display assays; amine-coupled to the sensor chip in the Biacore assay); assay: SPR, Biacore T100, KD at pH 7.4 against KD at pH 6.0
T1 construct: also called neonatal Fc receptor
Experimental: (§1) In order to find whether a peptide alone interacts with FcRn in a pH dependent manner, the peptide 2G01D not having SGSGS on the C-terminal side of 8D-01 and amidated at the C-terminal was synthesized on a solid phase and a dissociation constant Kd binding constant was measured using Biacore T100 (GE Healthcare). FcRn was immobilized onto a sensor chip by an amine coupling method. The following is the peptide 2G01D:
(§2) On the other hand, a solid-phase synthesized peptide 2G01D was added as an analyte to a phosphate buffer having a pH 6.0 or 7.4 and a dissociation constant was measured.

[2] = target: T1, human soluble FcRn; assay: SPR, Biacore T100, FcRn amine-coupled to chip, peptide as analyte, phosphate buffer pH 6.0
Experimental: as §1, §2

[3] = target: T1, human soluble FcRn; assay: SPR, Biacore T100, FcRn amine-coupled to chip, peptide as analyte, phosphate buffer pH 7.4
Experimental: as §1, §2

T1 sequence (P55899 24-297 limits assumed, chain 1 of 2): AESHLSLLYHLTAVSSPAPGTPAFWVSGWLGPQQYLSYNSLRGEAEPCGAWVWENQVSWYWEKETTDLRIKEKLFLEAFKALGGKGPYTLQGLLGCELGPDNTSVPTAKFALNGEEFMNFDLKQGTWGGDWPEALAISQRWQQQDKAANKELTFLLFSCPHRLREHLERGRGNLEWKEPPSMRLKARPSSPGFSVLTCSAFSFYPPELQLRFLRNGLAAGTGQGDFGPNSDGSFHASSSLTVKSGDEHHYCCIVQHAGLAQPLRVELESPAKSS
T1 sequence (P61769 21-119 limits assumed, chain 2 of 2): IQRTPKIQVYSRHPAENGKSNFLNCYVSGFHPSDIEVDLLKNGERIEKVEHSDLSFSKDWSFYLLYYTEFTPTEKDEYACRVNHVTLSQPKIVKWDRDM

B1: peptide 2G01D (peptide)
peptide: {CH2CO}-[dNty]F[Tyr(3-NO2)]LYN[Arg(NO2)]GDPL[Tyr(3-NO2)]LCG-NH2
modifications: thioether N-14; not fully specified
notes: also called solid-phase synthesized peptide 2G01D
For B1, the “fold change in dissociation constant between pH 7.4 and pH 6.0” value [1] was about 70 times, the Kd [2] was 4.26 nM and the koff [2] was 0.00394 s⁻¹. It also gave a kon [2] of 925000 M⁻¹ s⁻¹, a Kd [3] of 293 nM and a koff [3] of 0.00955 s⁻¹. The kon [3] was 32600 M⁻¹ s⁻¹.
